Data on 167 variants can be found in the RNAGym collection of RNA variant scans (doi:10.7554/elife.80360).

B1: HDV Ribozyme (parent)
chain: GGCCGGCAUGGUCCCAGCCUCCUCGCUGGCGCCGGCUGGGCAACAUUCCGAGGGGACCGUCCCCUCGGUAAUGGCGAAUGGGACCCA

In the data set the parent is B1. As to the kind of experiment: self-cleavage, relative activity (ratio to wild type); higher = more cleavage; co-transcriptional.
For the variant C26U C36U, the self-cleavage turned out to be 0.975.

As for C7U G59A, the self-cleavage is 0.8.

On to C33G U79A, for which the self-cleavage stood at 0.0755.

With C22U C32U, the self-cleavage stood at 0.65.

In the case of G55U C62A, the self-cleavage was determined as 0.973.

Turning to U47C U72G, the self-cleavage came out at 0.791.

U46C U47C: the self-cleavage was 0.743.

Take G52A C64G: the self-cleavage was found to be 0.935.

For G52C A78U, the self-cleavage is 0.315.

As to G5C C63A, the self-cleavage was 0.383.

In the case of U72A A77U, the self-cleavage came to 0.322.

U12C G82A: the self-cleavage came to 0.0923.

Turning to A8U C14A, the self-cleavage came out at 0.192.

In the case of G5A A45G, the self-cleavage turned out to be 0.196.

With G28C G38A, the self-cleavage is 0.0415.

For G39A G55U, the self-cleavage was determined as 0.356.

Consider U79C C84A, for which the self-cleavage was found to be 0.462.

Turning to C22A U23G, the self-cleavage is 0.

Regarding G50U G74C, the self-cleavage amounted to 0.214.

On to A43U C86U, for which the self-cleavage came out at 0.563.

Take C4A C61U: the self-cleavage stood at 0.267.

Turning to C15U C58G, the self-cleavage was 1.36.

With C24A A71G, the self-cleavage stood at 0.61.

Consider U65C G80A, for which the self-cleavage was 0.356.

As for U9C C30U, the self-cleavage is 0.636.

Regarding G39U C75A, the self-cleavage stood at 0.166.

On to U9G G54A, for which the self-cleavage stood at 0.95.

For C3U G52C, the self-cleavage was 0.546.

For G11U C36A, the self-cleavage came to 0.0755.

On to G40A G74A, for which the self-cleavage stood at 0.726.

For G31U A45C, the self-cleavage came out at 0.119.

On to C58U C85A, for which the self-cleavage is 1.13.

As to C22U C44G, the self-cleavage came to 0.095.

C7U G68U: the self-cleavage amounted to 0.764.

In the case of U12G A78U, the self-cleavage was 0.

As to C30A G55U, the self-cleavage came to 0.458.

For the variant U9C C84G, the self-cleavage came to 0.489.

With U72G A83C, the self-cleavage was determined as 0.332.

U12G A87U: the self-cleavage worked out at 0.813.

Consider A51G G68A, for which the self-cleavage was determined as 0.901.

Regarding C21G U37A, the self-cleavage came out at 0.119.

G50C C85U: the self-cleavage was 1.09.

Consider G38U G82A, for which the self-cleavage is 0.0886.

G5A C30A: the self-cleavage worked out at 0.109.

With G5U C48U, the self-cleavage worked out at 0.346.

As for A56G A87G, the self-cleavage stood at 0.929.

In the case of C15U C63U, the self-cleavage is 0.914.

For the variant C14G A45U, the self-cleavage turned out to be 0.237.

Take U9G C85A: the self-cleavage worked out at 1.02.

For C15G A83C, the self-cleavage is 0.249.

On to C19A U79A, for which the self-cleavage came to 0.0773.

Regarding G25U G34A, the self-cleavage was determined as 0.0573.

As for A56C A71U, the self-cleavage is 1.11.

As for C33A G68U, the self-cleavage worked out at 0.102.

For the variant C18U G82A, the self-cleavage is 0.194.

With G34U C41U, the self-cleavage is 0.131.

Consider U9C G73C, for which the self-cleavage turned out to be 0.291.

For G55C A71G, the self-cleavage is 0.912.

Regarding U20G A56U, the self-cleavage was 0.178.

On to C3A U9C, for which the self-cleavage was 0.381.

With C21G A70G, the self-cleavage was 0.185.

With C7G A45G, the self-cleavage worked out at 0.217.

On to G11U U60C, for which the self-cleavage was found to be 0.342.

Consider G25C C84G, for which the self-cleavage turned out to be 0.158.

For A8C C58U, the self-cleavage was 0.831.

C13G G68C: the self-cleavage stood at 0.

In the case of C18G C85G, the self-cleavage was determined as 0.

On to C18A A42C, for which the self-cleavage amounted to 0.0707.

For G1U A51C, the self-cleavage came out at 0.231.

Turning to U9A C32G, the self-cleavage was found to be 0.0489.

For G17C C66G, the self-cleavage came out at 0.32.

With A45C C61G, the self-cleavage was determined as 0.6.

G2A U20A: the self-cleavage was 0.0361.

In the case of G53U A77G, the self-cleavage came to 0.8.

On to C41G G68A, for which the self-cleavage turned out to be 0.45.

As to C4A U72C, the self-cleavage was 0.111.

C19A U46G: the self-cleavage is 0.0386.

On to G10A G54A, for which the self-cleavage was determined as 0.591.

Regarding G50U U60G, the self-cleavage came out at 0.831.

With C44A A78C, the self-cleavage stood at 0.0811.

As for U46A C75A, the self-cleavage amounted to 0.151.

As for A56U G67A, the self-cleavage came to 1.17.

With A71C A78G, the self-cleavage amounted to 0.615.

For C21A G55C, the self-cleavage was found to be 0.13.

As for U12G C36G, the self-cleavage was determined as 0.

For the variant G5U C32G, the self-cleavage worked out at 0.196.

On to C14G C48U, for which the self-cleavage was 0.831.

For G10U G40U, the self-cleavage is 0.842.

Take C63U A77G: the self-cleavage turned out to be 0.882.

Regarding G38U C44U, the self-cleavage is 0.126.

As for C4G U69G, the self-cleavage was 0.317.

Regarding C24A G39U, the self-cleavage is 0.211.

Turning to C13U G68C, the self-cleavage was found to be 0.511.

For the variant A43G G81U, the self-cleavage stood at 0.138.

Take C3A C61G: the self-cleavage turned out to be 0.512.

As to C61G C62U, the self-cleavage amounted to 0.815.

For C3G G38C, the self-cleavage was 0.192.

Regarding C61G A83G, the self-cleavage turned out to be 0.567.

As to C7U C61G, the self-cleavage came out at 0.743.

G31C G50C: the self-cleavage is 0.511.

With A56U C66G, the self-cleavage is 0.997.

With G1C C7G, the self-cleavage came to 0.0875.

On to C33G G67U, for which the self-cleavage was 0.111.

As for C57U G81U, the self-cleavage was determined as 0.353.

As for C15A G73A, the self-cleavage is 0.283.

On to G6A A45G, for which the self-cleavage came to 0.425.

Take C64U G74U: the self-cleavage turned out to be 0.569.

In the case of C41U A51C, the self-cleavage stood at 0.916.

Turning to G2C U23C, the self-cleavage came to 0.

C49A A70C: the self-cleavage is 0.831.

Take A45C G80C: the self-cleavage worked out at 0.0504.

In the case of G10A G40U, the self-cleavage is 0.566.

Turning to G28A G53U, the self-cleavage was determined as 0.0615.

Consider A16U G50A, for which the self-cleavage was 0.933.

Take C4G C85G: the self-cleavage came to 0.332.

For the variant G17U A83C, the self-cleavage was 0.219.

For C13U U47A, the self-cleavage was 0.646.

C57A A70U: the self-cleavage was determined as 1.25.

In the case of C41U U46G, the self-cleavage stood at 1.02.

In the case of C22A C41U, the self-cleavage was found to be 0.252.

For C4U U69C, the self-cleavage is 0.755.

Turning to C33A U47A, the self-cleavage was determined as 0.0378.

As for C36U C86G, the self-cleavage was determined as 0.703.

For C18U G68C, the self-cleavage is 0.544.

With G10U G68U, the self-cleavage worked out at 0.727.

With G2C U46G, the self-cleavage came out at 0.0959.

As to G54U C86U, the self-cleavage was found to be 0.882.

Consider C19G G74A, for which the self-cleavage was 0.161.

For the variant G39A G40A, the self-cleavage was determined as 0.786.

For the variant C61G U65C, the self-cleavage worked out at 1.24.

Consider C19U U79G, for which the self-cleavage was found to be 0.0997.

Turning to U9G U37C, the self-cleavage amounted to 1.37.

Consider G11A G55A, for which the self-cleavage amounted to 0.499.

For C64U A87U, the self-cleavage was 0.804.

Regarding C32G A43G, the self-cleavage came to 0.0489.

On to U20A C63G, for which the self-cleavage was 0.

As for C62G G80C, the self-cleavage came out at 0.0791.

As to C30G G74U, the self-cleavage is 0.128.

For the variant C33G G40C, the self-cleavage amounted to 0.138.

With G40U G81C, the self-cleavage was 0.149.

Turning to U46A C63A, the self-cleavage turned out to be 0.499.

As to C18U U20A, the self-cleavage is 0.0339.

For C3U G11C, the self-cleavage was found to be 0.191.

In the case of C18G C30A, the self-cleavage is 0.0739.

With G35C C41G, the self-cleavage came out at 0.161.

On to C15U G59U, for which the self-cleavage was 0.895.

For the variant U65C G81C, the self-cleavage was found to be 0.227.

For A42G G73C, the self-cleavage amounted to 0.

As to G76C A83G, the self-cleavage worked out at 0.554.

In the case of A42G C62G, the self-cleavage was 0.469.

Consider C30U C61G, for which the self-cleavage came out at 0.369.

Take C26U C33G: the self-cleavage worked out at 0.389.

For U65A U72C, the self-cleavage is 0.511.

On to C24U G40A, for which the self-cleavage turned out to be 0.701.

On to C7U C64A, for which the self-cleavage worked out at 0.923.

As to G80U A83G, the self-cleavage was 0.253.

For the variant G35U A45C, the self-cleavage was determined as 0.0475.

In the case of C7G C21U, the self-cleavage is 0.0594.

With C15G G50C, the self-cleavage came out at 0.575.

For C19U G50U, the self-cleavage came to 0.159.

Consider U20C G28A, for which the self-cleavage is 0.147.

With A78U A87U, the self-cleavage is 0.243.

As for C18A C62U, the self-cleavage turned out to be 0.264.

C49A A83G: the self-cleavage worked out at 0.546.

With G50C U65C, the self-cleavage was 1.05.

Take C24G G74A: the self-cleavage stood at 0.124.

G40A C85A: the self-cleavage was 0.859.
